From the supplement of paper PMC7877785
± gives the uncertainty stated by the source.

Assay: self-splicing fitness, log relative to wild type (ln ratio); higher = more splicing; Tetrahymena group I intron in knt gene, E. coli kanamycin selection, DiMSum; sequences stand for … in CUCUCU…GGAGGGAAAAGUUAUCAGGCAUGCACCUGGUAGCUAGUCUUUAAACCAAUAGAUUGCAUCGGUUUAAAAGGCAAGACCGUCAAAUUGCGGGAAAGGGGUCAACAGCCGUUCAGUACCAAGUCUCAGGGGAAACUUUGAGAUGGCCUUGCAAAGGGUAUGGUAAUAAGCUGACGGACAUGGUCCUAACCACGCAGCCAAGUCCUAAGUCAACAGAUCUUCUGUUGAUAUGGAUGCAGUUCACAGACUAAAUGUCGGUCGGGGAAGAUGUAUUCUUCUCAUAAGAUAUAGUCGGACCUCUCCUUAAUGGGAGCUAGCGGAUGAAGUGAUGCAACACUGGAGCCGCUGGGAACUAAUUUGUAUGCGAAAGUAUAUUGAUUAGUUUUGGAGUACUCGUGGUCG
In short: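 Fitness was computed with DiMSum as the error-weighted combination of replicate fold changes, kanamycin versus none, each normalised to wild type. The library randomised all eight intron nucleotides of the P1ex region, with the intron placed in the knt kanamycin-resistance gene on pET-22b(+) in E. coli BL21(DE3). Six replicate transformations were grown overnight at 37°C or 30°C on LB agar with or without 25 μg/mL kanamycin, plus 100 μg/mL carbenicillin, 50 μM IPTG and 0.2% rhamnose. Pooled colonies were amplicon-sequenced on an Illumina HiSeq 2500.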

| Sequence | self-splicing fitness (ln) (30 °C) | self-splicing fitness (ln) (37 °C) |
| --- | --- | --- |
| AGGAAGCAAUAUUACGGGCG | -0.564 ± 0.11 | -0.865 ± 0.15 |
| AGGAAGCAAUAUUACGUAAU | -0.858 ± 0.14 | -1.42 ± 0.18 |
| AGGAAGCAAUAUUACGUCGG | -2.61 ± 0.15 | -1.13 ± 0.15 |
| AGGAAGCAAUAUUACGUGAG | -0.821 ± 0.1 | -1.57 ± 0.14 |
| AGGAAGCAAUAUUACGUGCA | -1.12 ± 0.11 | -1.32 ± 0.13 |
| AGGAAGCAAUAUUACGUGGG | -4.36 ± 0.31 | -3.38 ± 0.23 |
| AGGAAGCAAUAUUACGUGUA | -2.06 ± 0.1 | -0.914 ± 0.085 |
| AGGAAGCAAUAUUACGUUCA | -0.532 ± 0.13 | -1.05 ± 0.21 |
| AGGCAGCAAUAUUACGAAUA | -2.67 ± 0.25 | -2.08 ± 0.22 |
| AGGCAGCAAUAUUACGAUCG | -0.369 ± 0.077 | 0.135 ± 0.093 |
| AGGCAGCAAUAUUACGCAAG | -1.22 ± 0.072 | -0.387 ± 0.098 |
| AGGCAGCAAUAUUACGCCGU | -1.92 ± 0.19 | -0.237 ± 0.17 |
| AGGCAGCAAUAUUACGCGUU | -2.29 ± 0.12 | -0.692 ± 0.11 |
| AGGCAGCAAUAUUACGGAAC | -4.21 ± 0.47 | -2.29 ± 0.36 |
| AGGCAGCAAUAUUACGGACC | -0.728 ± 0.14 | -0.53 ± 0.18 |
| AGGCAGCAAUAUUACGGAGG | -4.29 ± 0.26 | -2.66 ± 0.25 |
| AGGCAGCAAUAUUACGGCUA | -0.132 ± 0.069 | -0.399 ± 0.078 |
| AGGCAGCAAUAUUACGGGAU | -2.85 ± 0.16 | -1.39 ± 0.14 |
| AGGCAGCAAUAUUACGGGGU | -3.54 ± 0.21 | -3.25 ± 0.37 |
| AGGCAGCAAUAUUACGGUUC | -1.43 ± 0.14 | -1.8 ± 0.19 |
| AGGCAGCAAUAUUACGUAGC | -2.64 ± 0.23 | -1.29 ± 0.17 |
| AGGCAGCAAUAUUACGUAGG | -2.04 ± 0.083 | -1.64 ± 0.12 |
| AGGCAGCAAUAUUACGUCCU | -3.02 ± 0.26 | -1.29 ± 0.37 |
| AGGCAGCAAUAUUACGUCGG | -0.675 ± 0.08 | -0.941 ± 0.09 |
| AGGCAGCAAUAUUACGUCGU | -0.986 ± 0.058 | -0.962 ± 0.088 |

| Sequence | self-splicing fitness (ln) (30 °C) | self-splicing fitness (ln) (37 °C) |
| --- | --- | --- |
| AGGCAGCAAUAUUACGUCUG | -2.66 ± 0.15 | -1.51 ± 0.15 |
| AGGCAGCAAUAUUACGUGAA | -1.12 ± 0.07 | -0.932 ± 0.11 |
| AGGGAGCAAUAUUACGAACC | -1.52 ± 0.23 | -1.48 ± 0.29 |
| AGGGAGCAAUAUUACGAGCG | -2.94 ± 0.47 | -0.874 ± 0.43 |
| AGGGAGCAAUAUUACGCAAU | – | -1.7 ± 0.47 |
| AGGGAGCAAUAUUACGCAGG | – | -0.965 ± 0.24 |
| AGGGAGCAAUAUUACGCCCG | -3.31 ± 0.5 | -0.737 ± 0.49 |
| AGGGAGCAAUAUUACGCCGU | -2.11 ± 0.42 | -0.233 ± 0.39 |
| AGGGAGCAAUAUUACGCCUU | -3.04 ± 0.36 | – |
| AGGGAGCAAUAUUACGCGCG | -1.62 ± 0.35 | -1.11 ± 0.37 |
| AGGGAGCAAUAUUACGGAUU | -4.58 ± 0.38 | -2.67 ± 0.31 |
| AGGGAGCAAUAUUACGGCGG | -2.87 ± 0.21 | -2.73 ± 0.3 |
| AGGGAGCAAUAUUACGUCAA | -3.37 ± 0.44 | -2.52 ± 0.45 |
| AGGGAGCAAUAUUACGUCCU | -2.66 ± 0.29 | -1.55 ± 0.24 |
| AGGGAGCAAUAUUACGUCUU | -2.53 ± 0.15 | -0.226 ± 0.15 |
| AGGGAGCAAUAUUACGUGUU | -2.63 ± 0.31 | -1.73 ± 0.29 |
| AGGUAGCAAUAUUACGAAAG | -3.732 ± 0.036 | -2.49 ± 0.045 |
| AGGUAGCAAUAUUACGAAGA | -2.84 ± 0.03 | -1.83 ± 0.038 |
| AGGUAGCAAUAUUACGACAC | -0.582 ± 0.018 | -0.427 ± 0.036 |
| AGGUAGCAAUAUUACGACCG | -0.101 ± 0.02 | 0.197 ± 0.039 |
| AGGUAGCAAUAUUACGCAAC | -3.73 ± 0.042 | -2.61 ± 0.049 |
| AGGUAGCAAUAUUACGCGCG | -0.525 ± 0.016 | -0.215 ± 0.035 |
| AGGUAGCAAUAUUACGCGGG | -3.612 ± 0.026 | -2.38 ± 0.037 |
| AGGUAGCAAUAUUACGCGUA | -1.22 ± 0.017 | -0.701 ± 0.034 |
| AGGUAGCAAUAUUACGCUGC | -3.88 ± 0.042 | -2.79 ± 0.054 |

| Sequence | self-splicing fitness (ln) (30 °C) | self-splicing fitness (ln) (37 °C) |
| --- | --- | --- |
| AGGUAGCAAUAUUACGGACU | 0.0184 ± 0.014 | 0.271 ± 0.033 |
| AGGUAGCAAUAUUACGGCCG | -0.244 ± 0.018 | 0.0571 ± 0.038 |
| AGGUAGCAAUAUUACGGGAU | -2.755 ± 0.02 | -1.49 ± 0.034 |
| AGGUAGCAAUAUUACGGGCA | -0.941 ± 0.017 | -0.414 ± 0.034 |
| AGGUAGCAAUAUUACGGGCC | -1.74 ± 0.024 | -1.5 ± 0.041 |
| AGGUAGCAAUAUUACGGGGA | -3.342 ± 0.031 | -2.42 ± 0.039 |
| AGGUAGCAAUAUUACGGGGU | -3.984 ± 0.027 | -2.94 ± 0.038 |
| AGGUAGCAAUAUUACGGGUU | -2.347 ± 0.017 | -1.72 ± 0.035 |
| AGGUAGCAAUAUUACGGUAG | -3.883 ± 0.03 | -2.99 ± 0.042 |
| AGGUAGCAAUAUUACGUAAG | -2.267 ± 0.017 | -1.25 ± 0.034 |
| AGGUAGCAAUAUUACGUACA | -0.927 ± 0.016 | -0.257 ± 0.034 |
| AGGUAGCAAUAUUACGUACG | -1.19 ± 0.015 | -0.48 ± 0.034 |
| AGGUAGCAAUAUUACGUGAU | -2.479 ± 0.016 | -1.53 ± 0.034 |
| AGGUAGCAAUAUUACGUUCG | -0.889 ± 0.014 | -0.42 ± 0.034 |
| AGGUAGCAAUAUUACGUUGG | -3.813 ± 0.028 | -2.95 ± 0.041 |
| AGUAAGCAAUAUUACGACGA | -1.15 ± 0.073 | -0.782 ± 0.079 |
| AGUAAGCAAUAUUACGAGAU | -3.09 ± 0.15 | -0.575 ± 0.16 |
| AGUAAGCAAUAUUACGAGGA | -2.06 ± 0.33 | -2.55 ± 0.49 |
| AGUAAGCAAUAUUACGAUAU | -1.95 ± 0.13 | -0.493 ± 0.15 |
| AGUAAGCAAUAUUACGAUUA | -0.948 ± 0.082 | 0.25 ± 0.092 |
| AGUAAGCAAUAUUACGAUUC | -1.31 ± 0.14 | -0.96 ± 0.22 |
| AGUAAGCAAUAUUACGCAAU | -2.52 ± 0.14 | -1.17 ± 0.16 |
| AGUAAGCAAUAUUACGCACA | -0.655 ± 0.082 | -0.356 ± 0.091 |
| AGUAAGCAAUAUUACGCAGU | -4.13 ± 0.17 | -2.98 ± 0.19 |
| AGUAAGCAAUAUUACGCGAU | -3.74 ± 0.18 | -2.29 ± 0.18 |

| Sequence | self-splicing fitness (ln) (30 °C) | self-splicing fitness (ln) (37 °C) |
| --- | --- | --- |
| AGUAAGCAAUAUUACGCGCU | -2.64 ± 0.28 | -2.1 ± 0.4 |
| AGUAAGCAAUAUUACGCGUG | -3.44 ± 0.2 | -1.46 ± 0.16 |
| AGUAAGCAAUAUUACGCGUU | -3.44 ± 0.17 | -2.8 ± 0.19 |
| AGUAAGCAAUAUUACGCUAA | -2.36 ± 0.17 | -2.3 ± 0.19 |
| AGUAAGCAAUAUUACGGCAU | -0.486 ± 0.11 | -0.411 ± 0.12 |
| AGUAAGCAAUAUUACGGCCA | -0.532 ± 0.14 | -0.74 ± 0.16 |
| AGUAAGCAAUAUUACGGCUA | 0.0253 ± 0.081 | 0.0684 ± 0.094 |
| AGUAAGCAAUAUUACGGGCU | -1.28 ± 0.12 | -1.6 ± 0.17 |
| AGUAAGCAAUAUUACGGGGA | -3.89 ± 0.31 | -2.3 ± 0.3 |
| AGUAAGCAAUAUUACGUAGG | -3.99 ± 0.19 | -3.09 ± 0.22 |
| AGUAAGCAAUAUUACGUCAG | – | -2.58 ± 0.3 |
| AGUAAGCAAUAUUACGUGAC | – | -2.19 ± 0.2 |
| AGUAAGCAAUAUUACGUUGA | -3.1 ± 0.23 | -2.1 ± 0.24 |
| AGUAAGCAAUAUUACGUUUC | -3.78 ± 0.23 | -1.37 ± 0.21 |
| AGUCAGCAAUAUUACGAAAC | – | -1.45 ± 0.28 |
| AGUCAGCAAUAUUACGAAGG | -1.27 ± 0.08 | -1.46 ± 0.12 |
| AGUCAGCAAUAUUACGAAUA | -0.962 ± 0.2 | -1.22 ± 0.17 |
| AGUCAGCAAUAUUACGACAU | 0.0908 ± 0.012 | -0.0465 ± 0.032 |
| AGUCAGCAAUAUUACGCAAC | -1.65 ± 0.18 | -1.22 ± 0.21 |
| AGUCAGCAAUAUUACGCAGU | -1.89 ± 0.23 | -0.11 ± 0.17 |
| AGUCAGCAAUAUUACGCAUA | -2.09 ± 0.13 | -0.502 ± 0.12 |
| AGUCAGCAAUAUUACGCGAC | -2.59 ± 0.26 | -3.14 ± 0.35 |
